{"source": "paper PMC9870871", "about": "“Investigating the effects of cyclic topology on the performance of a plastic degrading enzyme for polyethylene terephthalate degradation” (Scientific Reports, 2023)", "substrate": "CC(=O)Oc1ccc([N+](=O)[O-])cc1", "test": "purified protein", "assay_type": "biochemical, Pseudideonella sakaiensis", "details": "50 mM Na2HPO4 pH 7.5, 30 °C, 5% v/v DMSO, 10 nM enzyme, 0-5.0 mM substrate"}
{"protein": "IsPETase-WT (Pseudideonella sakaiensis) (protein, linear wild-type enzyme, synthetic gene in pET-28a(+) or pET-21b(+), E. coli Shuffle T7 Express, Ni-NTA and SEC; monomer) QTNPYARGPNPTAASLEASAGPFTVRSFTVSRPSGYGAGTVYYPTNAGGTVGAIAIVPGYTARQSSIKWWGPRLASHGFVVITIDTNSTLDQPSSRSSQQMAALRQVASLNGTSSSPIYGKVDTARMGVMGWSMGGGGSLISAANNPSLKAAAPQAPWDSSTNFSSVTVPTLIFACENDSIAPVNSSALPIYDSMSRNAKQFLEINGGSHSCANSGNSNQALIGKKGVAWMKRFMDNDTRYSTFACENPNSTRVSDFRTANCS", "values": [{"measurement": "Km", "result": "2700 ± 300", "unit": "µM"}]}
